Molecular target: BiP (human (endogenous in HEK293T)) (UniProt P11021)
Experiment: co-IP

Sequence of UniProt P11021 (P11021 19-654): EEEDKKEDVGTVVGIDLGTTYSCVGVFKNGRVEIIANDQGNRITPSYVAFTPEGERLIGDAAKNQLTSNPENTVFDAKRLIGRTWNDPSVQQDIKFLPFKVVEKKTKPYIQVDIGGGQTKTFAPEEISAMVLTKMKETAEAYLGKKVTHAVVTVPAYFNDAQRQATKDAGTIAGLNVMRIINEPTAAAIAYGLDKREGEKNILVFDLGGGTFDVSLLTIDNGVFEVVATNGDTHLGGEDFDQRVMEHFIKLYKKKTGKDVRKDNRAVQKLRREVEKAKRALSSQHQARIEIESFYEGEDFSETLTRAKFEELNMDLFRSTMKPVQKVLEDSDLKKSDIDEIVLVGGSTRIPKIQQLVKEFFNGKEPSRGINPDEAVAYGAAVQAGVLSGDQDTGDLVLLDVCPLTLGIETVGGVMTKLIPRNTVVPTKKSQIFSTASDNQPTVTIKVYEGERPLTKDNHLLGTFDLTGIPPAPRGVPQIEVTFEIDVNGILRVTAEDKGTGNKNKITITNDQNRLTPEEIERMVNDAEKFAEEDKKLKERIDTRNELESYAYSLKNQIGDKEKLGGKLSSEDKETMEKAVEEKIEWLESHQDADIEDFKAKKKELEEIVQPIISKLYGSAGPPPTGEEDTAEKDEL

fold co-precipitated relative to NHK: 2 fold
Substance: QQQ mutant of NHK (from UniProt P01009 25-418) (natural protein)

Source: PMC3806662
